Source: paper PMC4627230, “Identification of TAX2 peptide as a new unpredicted anti-cancer agent” (Oncotarget, 2015)

Biological target: T1, CD36, endogenous in HUVECs (human (endogenous in HUVECs), UniProt P16671 1-472)
T1 construct: CD36, endogenous in HUVECs; immunoprecipitated with anti-CD36; also called CD36-containing complexes; source: endogenous, HUVEC whole cell extracts
Assay: co-IP; antibody (anti-CD47 B6H12, anti-CD36, anti-FGF2, anti-VEGF, anti-β1 integrin, anti-LRP1 heavy chain) covalently coupled to resin (Pierce Co-IP kit), incubated with whole HUVEC protein lysate (or conditioned media) overnight at 4°C, no cross-linker; cells treated with 100 μM TAX2 or control peptide; for VEGFR2 also 30 ng/mL VEGF for 5 min; immunoblot
Conditions: partners not purified

T1 sequence (P16671 whole entry): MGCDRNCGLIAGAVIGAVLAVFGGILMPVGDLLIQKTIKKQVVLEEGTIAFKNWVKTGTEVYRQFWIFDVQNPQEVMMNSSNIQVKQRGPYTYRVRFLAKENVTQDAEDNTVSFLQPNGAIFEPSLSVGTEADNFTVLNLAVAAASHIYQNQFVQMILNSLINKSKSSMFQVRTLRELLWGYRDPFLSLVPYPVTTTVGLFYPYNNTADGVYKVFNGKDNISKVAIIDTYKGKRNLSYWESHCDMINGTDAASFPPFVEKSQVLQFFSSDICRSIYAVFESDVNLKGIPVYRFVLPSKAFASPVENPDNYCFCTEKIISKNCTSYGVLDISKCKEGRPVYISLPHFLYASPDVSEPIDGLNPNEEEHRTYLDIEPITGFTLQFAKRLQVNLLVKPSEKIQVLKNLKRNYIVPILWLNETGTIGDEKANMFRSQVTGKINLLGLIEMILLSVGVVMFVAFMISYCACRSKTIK

B1: thrombospondin-1 (TSP-1), endogenous in HUVECs (natural protein)
chain: not shown
notes: thrombospondin-1, endogenous in human umbilical vein endothelial cells; detected by anti-TSP-1 (clone A6.1); source: endogenous, HUVEC protein lysate or conditioned media
fold increase of co-immunoprecipitated TSP-1 with TAX2 (100 μM) against control: 3 fold
